{"source": "patent US20250237661A1", "about": "(MESO SCALE TECHNOLOGIES, published 2025)", "target": "T1, angiotensin-converting enzyme 2 (ACE2), labeled with a detection label (human, UniProt Q9BYF1 18-740)", "T1 construct": "also called labeled ACE2", "T1 sequence (Q9BYF1 18-740 limits assumed)": "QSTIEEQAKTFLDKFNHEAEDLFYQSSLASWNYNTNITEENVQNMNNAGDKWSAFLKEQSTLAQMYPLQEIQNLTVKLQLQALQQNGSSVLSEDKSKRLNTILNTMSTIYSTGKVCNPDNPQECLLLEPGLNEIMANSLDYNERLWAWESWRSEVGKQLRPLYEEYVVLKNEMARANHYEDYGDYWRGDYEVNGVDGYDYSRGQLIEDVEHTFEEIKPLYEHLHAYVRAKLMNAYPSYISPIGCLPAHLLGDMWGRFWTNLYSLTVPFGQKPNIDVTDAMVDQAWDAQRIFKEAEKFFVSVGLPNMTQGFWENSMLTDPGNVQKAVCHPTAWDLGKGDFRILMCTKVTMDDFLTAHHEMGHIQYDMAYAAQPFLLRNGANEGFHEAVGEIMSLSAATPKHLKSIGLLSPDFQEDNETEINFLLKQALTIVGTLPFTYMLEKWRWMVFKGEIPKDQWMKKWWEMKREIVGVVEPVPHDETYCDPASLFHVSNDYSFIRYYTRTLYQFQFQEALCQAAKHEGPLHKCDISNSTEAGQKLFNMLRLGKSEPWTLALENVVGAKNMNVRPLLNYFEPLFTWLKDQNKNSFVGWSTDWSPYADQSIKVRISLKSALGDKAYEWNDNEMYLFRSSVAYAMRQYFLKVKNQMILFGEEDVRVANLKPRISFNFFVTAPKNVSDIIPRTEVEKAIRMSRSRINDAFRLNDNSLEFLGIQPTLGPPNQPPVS", "assay": "labeled ACE2 on immobilized Mixed Panel antigens, ECL", "data": [{"binder": "HCoV-OC43 S protein (other) AVIGDLKCTSDNINDKDTGPPPISTDTVDVTNGLGTYYVLDRVYLNTTLFLNGYYPTSGSTYRNMALKGSVLLSRLWFKPPFLSDFINGIFAKVKNTKVIKDRVMYSEFPAITIGSTFVNTSYSVVVQPRTINSTQDGDNKLQGLLEVSVCQYNMCEYPQTICHPNLGNHRKELWHLDTGVVSCLYKRNFTYDVNADYLYFHFYQEGGTFYAYFTDTGVVTKFLFNVYLGMALSHYYVMPLTCNSKLTLEYWVTPLTSRQYLLAFNQDGIIFNAEDCMSDFMSEIKCKTQSIAPPTGVYELNGYTVQPIADVYRRKPNLPNCNIEAWLNDKSVPSPLNWERKTFSNCNFNMSSLMSFIQADSFTCNNIDAAKIYGMCFSSITIDKFAIPNGRKVDLQLGNLGYLQSFNYRIDTTATSCQLYYNLPAANVSVSRFNPSTWNKRFGFIEDSVFKPRPAGVLTNHDVVYAQHCFKAPKNFCPCKLNGSCVGSGPGKNNGIGTCPAGTNYLTCDNLCTPDPITFTGTYKCPQTKSLVGIGEHCSGLAVKSDYCGGNSCTCRPQAFLGWSADSCLQGDKCNIFANFILHDVNSGLTCSTDLQKANTDIILGVCVNYDLYGILGQGIFVEVNATYYNSWQNLLYDSNGNLYGFRDYIINRTFMIRSCYSGRVSAAFHANSSEPALLFRNIKCNYVFNNSLTRQLQPINYFDSYLGCVVNAYNSTAISVQTCDLTVGSGYCVDYSKNRRSRGAITTGYRFTNFEPFTVNSVNDSLEPVGGLYEIQIPSEFTIGNMVEFIQTSSPKVTIDCAAFVCGDYAACKSQLVEYGSFCDNINAILTEVNELLDTTQLQVANSLMNGVTLSTKLKDGVNFNVDDINFSPVLGCLGSECSKASSRSAIEDLLFDKVKLSDVGFVEAYNNCTGGAEIRDLICVQSYKGIKVLPPLLSENQISGYTLAATSASLFPPWTAAAGVPFYLNVQYRINGLGVTMDVLSQNQKLIANAFNNALYAIQEGFDATNSALVKIQAVVNANAEALNNLLQQLSNRFGAISASLQEILSRLDALEAEAQIDRLINGRLTALNAYVSQQLSDSTLVKFSAAQAMEKVNECVKSQSSRINFCGNGNHIISLVQNAPYGLYFIHFSYVPTKYVTARVSPGLCIAGDRGIAPKSGYFVNVNNTWMYTGSGYYYPEPITENNVVVMSTCAVNYTKAPYVMLNTSIPNLPDFKEELDQWFKNQTSVAPDLSLDYINVTFLDLQVEMNRLQEAIKVLNQSYINLKDIGTYEYYVKWP", "values": [{"measurement": "binding result", "result": "no binding"}]}]}
